Results on 2 molecules are retold here after patent publication CN114437226A (HANGZHOU CYANINE INGENKANG BIOTECHNOLOGY LTD COMPANY, dated 2022).

The target in the assay is T1, 人白介素22(IL22)(Sino Biological) (human, UniProt Q9GZX6 34-179).
T1 sequence (looked up): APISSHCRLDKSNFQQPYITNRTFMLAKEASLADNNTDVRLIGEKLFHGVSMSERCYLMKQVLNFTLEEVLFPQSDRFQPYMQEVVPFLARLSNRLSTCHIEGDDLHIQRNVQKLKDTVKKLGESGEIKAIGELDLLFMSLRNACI
Nature of the assay: ELISA, IL22-coated plate (Fig 11).

B1: FezHλ-ClaH(K218C)κ(F118C) (bispecific antibody, human IgG1, lambda)
heavy 1: QVQLVQSGAEVKKPGASVKVSCKASGYTFTNYYMHWVRQAPGQGLEWVGWINPYTGSAFYAQKFRGRVTMTRDTSISTAYMELSRLRSDDTAVYYCAREPEKFDSDDSDVWGRGTLVTVSSASTKGPSVFPLAPSSKSTSGGTAALGCLVKDYFPEPVTVSWNSGALTSGVHTFPAVLQSSGLYSLSSVVTVPSSSLGTQTYICNVNHKPSNTKVDKKVEPKSCDKTHTCPPCPAPELLGGPSVFLFPPKPKDTLMISRTPEVTCVVVDVSHEDPEVKFNWYVDGVEVHNAKTKPREEQYNSTYRVVSVLTVLHQDWLNGKEYKCKVSNKALPAPIEKTISKAKGQPREPQVYTLPPSREEMTKNQVSLSCAVKGFYPSDIAVEWESNGQPENNYKTTPPVLDSDGSFFLVSKLTVDKSRWQQGNVFSCSVMHEALHNRFTQKSLSLSPGHHHHHH
light 1: QAVLTQPPSVSGAPGQRVTISCTGSSSNIGAGYGVHWYQQLPGTAPKLLIYGDSNRPSGVPDRFSGSKSGTSASLAITGLQAEDEADYYCQSYDNSLSGYVFGGGTQLTVLGQPKAAPSVTLFPPSSEELQANKATLVCLISDFYPGAVTVAWKADSSPVKAGVETTTPSKQSNNKYAASSYLSLTPEQWKSHRSYSCQVTHEGSTVEKTVAPTECS
heavy 2: not shown
light 2: AIQMTQSPSSLSASVGDRVTITCQASQSINNELSWYQQKPGKAPKLLIYRASTLASGVPSRFSGSGSGTDFTLTISSLQPDDFATYYCQQGYSLRNIDNAFGGGTKVEIKRTVAAPSVFICPPSDEQLKSGTASVVCLLNNFYPREAKVQWKVDNALQSGNSQESVTEQDSKDSTYSLSSTLTLSKADYEKHKVYACEVTHQGLSSPVTKSFNRGEV
notes: also called K218C/F118C
For the molecule B1, the binding result is “binds”.

B2: FezHλ-ClaH(S132C)κ(F116C) (bispecific antibody, human IgG1, lambda)
heavy 1: QVQLVQSGAEVKKPGASVKVSCKASGYTFTNYYMHWVRQAPGQGLEWVGWINPYTGSAFYAQKFRGRVTMTRDTSISTAYMELSRLRSDDTAVYYCAREPEKFDSDDSDVWGRGTLVTVSSASTKGPSVFPLAPSSKSTSGGTAALGCLVKDYFPEPVTVSWNSGALTSGVHTFPAVLQSSGLYSLSSVVTVPSSSLGTQTYICNVNHKPSNTKVDKKVEPKSCDKTHTCPPCPAPELLGGPSVFLFPPKPKDTLMISRTPEVTCVVVDVSHEDPEVKFNWYVDGVEVHNAKTKPREEQYNSTYRVVSVLTVLHQDWLNGKEYKCKVSNKALPAPIEKTISKAKGQPREPQVYTLPPSREEMTKNQVSLSCAVKGFYPSDIAVEWESNGQPENNYKTTPPVLDSDGSFFLVSKLTVDKSRWQQGNVFSCSVMHEALHNRFTQKSLSLSPGHHHHHH
light 1: QAVLTQPPSVSGAPGQRVTISCTGSSSNIGAGYGVHWYQQLPGTAPKLLIYGDSNRPSGVPDRFSGSKSGTSASLAITGLQAEDEADYYCQSYDNSLSGYVFGGGTQLTVLGQPKAAPSVTLFPPSSEELQANKATLVCLISDFYPGAVTVAWKADSSPVKAGVETTTPSKQSNNKYAASSYLSLTPEQWKSHRSYSCQVTHEGSTVEKTVAPTECS
heavy 2: not shown
light 2: AIQMTQSPSSLSASVGDRVTITCQASQSINNELSWYQQKPGKAPKLLIYRASTLASGVPSRFSGSGSGTDFTLTISSLQPDDFATYYCQQGYSLRNIDNAFGGGTKVEIKRTVAAPSVCIFPPSDEQLKSGTASVVCLLNNFYPREAKVQWKVDNALQSGNSQESVTEQDSKDSTYSLSSTLTLSKADYEKHKVYACEVTHQGLSSPVTKSFNRGEV
notes: also called S132C/F116C
Consider B2, for which the binding result was “binds”.
